Laboratory results: paper PMC7039123

Key:
[1] = target: R17^GAG2 (333KGRRK337 to 333DGEED337) (rodent herpesvirus Peru (RHVP)); test: SPR
[2] = target: R17 266NAGAQ270 mutant (rodent herpesvirus Peru (RHVP)); test: SPR

## murine CCL2^L46R (from UniProt P10148 24-148) (ligand)
[1]
  fold longer half life than wild type CCL2: 2 fold

## murine CCL2^K47N (from UniProt P10148 24-148) (ligand)
[1]
  t1/2: 5.5 s

## murine CCL2^L46RK47N (from UniProt P10148 24-148) (ligand)
[1]
  t1/2: > 900 s

B1: murine CCL3 (ligand)
chain: APYGADTPTACCFSYSRKIPRQFIVDYFETSSLCSQPGVIFLTKRNRQICADSKETWVQEYITDLELNA
[2]
  fold faster kinetic off-rate than with wild type R17: > 100 fold
  t1/2: 11 s
